Substitutions are numbered along the chain they refer to. Names may count otherwise.
B1: Chryseobacterium sp-62563 propeptide F99A (protein)
chain: NQDPNLVAKESNETAMKDFGKTVPVGIEKEDGKFKISFMVTAQPYEIKDSKENAAYISMIKTAVENETPIHVFLKANTNEIAKVDKATDDDIRYFKSVATKEVKEENRK
B2: Chryseobacterium sp-62563 propeptide (first polypeptide, propeptide domain), wildtype (other)
chain: B1 chain with A99F

Tests used:
Assay in all cases: cell-based or functional assay
[1] = target: T1, Chryseobacterium sp-62563 deamidase C169S (Chryseobacterium sp-62563)
T1 sequence: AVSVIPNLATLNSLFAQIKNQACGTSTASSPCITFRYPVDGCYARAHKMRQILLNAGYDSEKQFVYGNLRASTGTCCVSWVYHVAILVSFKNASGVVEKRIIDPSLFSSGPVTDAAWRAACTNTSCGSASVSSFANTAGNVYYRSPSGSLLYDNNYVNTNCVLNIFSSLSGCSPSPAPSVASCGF

[2] = target: T2, Chryseobacterium sp-62563 deamidase Q126E (Chryseobacterium sp-62563)
T2 sequence: T1 sequence with Q17E, S60C

[3] = target: T3, Chryseobacterium sp-62563 deamidase Q160D (Chryseobacterium sp-62563)
T3 sequence: T1 sequence with Q51D, S60C

[4] = target: T4, Chryseobacterium sp-62563 deamidase Q160N (Chryseobacterium sp-62563)
T4 sequence: T1 sequence with Q51N, S60C

[5] = target: T5, Chryseobacterium sp-62563 deamidase V190D (Chryseobacterium sp-62563)
T5 chain: T1 sequence with S60C, V81D

[6] = target: T6, Chryseobacterium sp-62563 deamidase V190F (Chryseobacterium sp-62563)
T6 chain: T1 sequence with S60C, V81F

[7] = target: T7, Chryseobacterium sp-62563 deamidase V190G (Chryseobacterium sp-62563)
T7 chain: T1 sequence with S60C, V81G

[8] = target: T8, Chryseobacterium sp-62563 deamidase V190K (Chryseobacterium sp-62563)
T8 chain: T1 sequence with S60C, V81K

[9] = target: T9, Chryseobacterium sp-62563 deamidase V190P (Chryseobacterium sp-62563)
T9 chain: T1 sequence with S60C, V81P

[10] = target: T10, Chryseobacterium sp-62563 deamidase V190Q (Chryseobacterium sp-62563)
T10 chain: T1 sequence with S60C, V81Q

[11] = target: T11, Chryseobacterium sp-62563 deamidase S258E (Chryseobacterium sp-62563)
T11 chain: T1 sequence with S60C, S149E

[12] = target: T12, Chryseobacterium sp-62563 deamidase Y261P (Chryseobacterium sp-62563)
T12 chain: T1 sequence with S60C, Y152P

Binder | Leakage activity [1] [%] | Relative activity of maturated deamidase (% initial rate) [1] | Relative activity of maturated deamidase (% initial rate) [2] | Relative activity of maturated deamidase (% initial rate) [3] | Relative activity of maturated deamidase (% initial rate) [4] | Relative activity of maturated deamidase [5] [% initial rate] | Relative activity of maturated deamidase [6] [% initial rate] | Relative activity of maturated deamidase [7] [% initial rate] | Relative activity of maturated deamidase [8] [% initial rate] | Relative activity of maturated deamidase [9] [% initial rate] | Relative activity of maturated deamidase [10] [% initial rate] | Relative activity of maturated deamidase [11] [% initial rate] | Relative activity of maturated deamidase [12] [% initial rate]
B1 | 1 | > 100 | > 100 | > 100 | > 100 |  |  |  |  |  |  |  | 
B2 |  |  |  |  |  | 30 | ≥ 100 | ≥ 100 | 36 | 32 | 96 | ≥ 100 | 32
